Measurements as given in publication PMC12781114, “Mechanistic and Molecular Dynamics Studies Reveal that Increased Loop 3 Mobility Alters Substrate Capture in an NADH:Quinone Oxidoreductase” (Biochemistry, 2025).

Key:
[1] = tested on: COC1=C(OC)C(=O)C(C)=CC1=O; experiment: purified protein; assay type: biochemical, Pseudomonas aeruginosa; conditions: pH 6.0, 25.0 °C
[2] = target: T1, NADH:quinone oxidoreductase (NQO-P78G) (Pseudomonas aeruginosa, UniProt Q9I4V0, P78G); experiment: anaerobic stopped-flow reductive half-reaction (flavin reduction at […] nm), hyperbolic fit; steady-state kinetics; assay type: biochemical
T1 construct: gene PA1024
T1 sequence (Q9I4V0 whole entry P78G): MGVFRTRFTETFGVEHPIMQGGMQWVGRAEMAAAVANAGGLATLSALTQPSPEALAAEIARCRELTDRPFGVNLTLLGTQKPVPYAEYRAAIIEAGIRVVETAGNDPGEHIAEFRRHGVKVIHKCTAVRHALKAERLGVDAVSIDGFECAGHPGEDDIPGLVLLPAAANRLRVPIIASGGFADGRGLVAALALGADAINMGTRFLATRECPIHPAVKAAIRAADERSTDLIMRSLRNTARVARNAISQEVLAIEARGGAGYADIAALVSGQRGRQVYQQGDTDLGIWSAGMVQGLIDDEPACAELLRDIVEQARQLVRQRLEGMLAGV

## NADH:quinone oxidoreductase (NQO-WT) (Pseudomonas aeruginosa PAO1)
[1]
  Km: 35 ± 6 µM

## NC(=O)C1=CN([C@@H]2O[C@H](COP(=O)(O)OP(=O)(O)OC[C@H]3O[C@@H](n4cnc5c(N)ncnc54)[C@H](O)[C@@H]3O)[C@@H](O)[C@H]2O)C=CC1 [NADH]
[2]
  Kd: 450 ± 40 µM

## NADH:quinone oxidoreductase (NQO-P78G) (Pseudomonas aeruginosa PAO1; P78G)
[1]; FMN active site pocket, binds the reduced enzyme (ping-pong bi-bi)
  Km: 10 ± 1 µM
